Experimental data: patent publication US20180142030A1 (Bristol-Myers Squibb, published 2018)
Numbering of substitutions follows the chain as printed. Names and notes keep the numbering of the source.

B1: 5F11-45 V9 (antibody, human IgG1, kappa)
heavy: QVQLVQSGAEVKKPGSSVKVSCKASGYTFTDLSMHWVRQAPGQGLEWMGYITPSSGYTAYNQKFKGKTTLTADKSTSTAYMELSSLRSEDTAVYYCARLILQRGAYWGQGTLVTVSSASTKGPSVFPLAPSSKSTSGGTAALGCLVKDYFPEPVTVSWNSGALTSGVHTFPAVLQSSGLYSLSSVVTVPSSSLGTQTYICNVNHKPSNTKVDKRVEPKSCDKTHTCPPCPAPELLGDDSVFLFPPKPKDTLMISRTPEVTCVVVDVSHEDGEVKFNWYVDGVEVHNAKTKPREEQYNSTYRVVSVLTVLHQDWLNGKEYKCKVSNKALPRPIEKTISKAKGQPREPQVYTLPPSREEMTKNQVSLTCLVKGFYPSDIAVEWESNGQPENNYKTTPPVLDSDGSFFLYSKLTVDKSRWQQGNVFSCSVMHEALHNHYTQKSLSLSPG
light: DIVLTQSPDSLAVSLGERATINCRASKNVDSYGNSFMHWYQQKPGQPPKLLIYRASNLESGVPDRFSGSGSGTDFTLTISSLQAEDVAVYYCQQSNEDPLTFGQGTKLEIKRTVAAPSVFIFPPSDEQLKSGTASVVCLLNNFYPREAKVQWKVDNALQSGNSQESVTEQDSKDSTYSLSSTLTLSKADYEKHKVYACEVTHQGLSSPVTKSFNRGEC
B2: 5F11-45 V4 (antibody, human IgG1, kappa)
heavy: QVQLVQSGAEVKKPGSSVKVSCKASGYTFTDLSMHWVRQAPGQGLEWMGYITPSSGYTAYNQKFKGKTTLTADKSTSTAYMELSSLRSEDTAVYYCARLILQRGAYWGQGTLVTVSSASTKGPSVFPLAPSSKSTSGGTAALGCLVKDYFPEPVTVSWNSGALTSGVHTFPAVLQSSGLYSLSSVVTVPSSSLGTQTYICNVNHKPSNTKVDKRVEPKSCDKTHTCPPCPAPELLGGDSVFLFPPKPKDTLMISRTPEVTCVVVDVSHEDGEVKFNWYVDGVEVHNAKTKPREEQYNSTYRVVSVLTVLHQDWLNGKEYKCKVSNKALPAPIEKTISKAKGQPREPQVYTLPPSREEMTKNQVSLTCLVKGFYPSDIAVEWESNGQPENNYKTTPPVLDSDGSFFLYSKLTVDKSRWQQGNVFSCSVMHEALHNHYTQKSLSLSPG
light: B1 light
B3: 12D6-24 V9 (antibody, human IgG1, kappa)
heavy: QVQLVQSGAEVKKPGASVKVSCKASGYTFTGYNMNWVRQAPGQGLEWMGNIDPYYGNTNYNQKFKGRVTMTTDTSTSTAYMELRSLRSDDTAVYYCARLGLQLYALDYWGQGTTVTVSSASTKGPSVFPLAPSSKSTSGGTAALGCLVKDYFPEPVTVSWNSGALTSGVHTFPAVLQSSGLYSLSSVVTVPSSSLGTQTYICNVNHKPSNTKVDKRVEPKSCDKTHTCPPCPAPELLGDDSVFLFPPKPKDTLMISRTPEVTCVVVDVSHEDGEVKFNWYVDGVEVHNAKTKPREEQYNSTYRVVSVLTVLHQDWLNGKEYKCKVSNKALPRPIEKTISKAKGQPREPQVYTLPPSREEMTKNQVSLTCLVKGFYPSDIAVEWESNGQPENNYKTTPPVLDSDGSFFLYSKLTVDKSRWQQGNVFSCSVMHEALHNHYTQKSLSLSPG
light: DIVMTQTPLSLPVTPGEPASISCRSSQSLVHSNANTYLHWYLQKPGQSPQLLIYKLTNRFFGVPDRFSGSGSGTDFTLKISRVEAEDVGVYYCSQSIHVPWTFGGGTKVEIKRTVAAPSVFIFPPSDEQLKSGTASVVCLLNNFYPREAKVQWKVDNALQSGNSQESVTEQDSKDSTYSLSSTLTLSKADYEKHKVYACEVTHQGLSSPVTKSFNRGEC
B4: 12D6-24-V9-DQ-sup (antibody)
heavy: B3 heavy with D272Q
light: B3 light
notes: Tested as supernatant of antibody-producing cells; also called 12D6-24 V9 D270Q; copies: 2 + 2
B5: 12D6-24 V9 D270E (antibody, human IgG1, kappa)
heavy: B3 heavy with D272E
light: B3 light
B6: 12D6-24-V9-DS-sup (antibody)
heavy: B3 heavy with D272S
light: B3 light
notes: Tested as supernatant of antibody-producing cells; also called 12D6-24 V9 D270S; copies: 2 + 2
B7: 12D6-24-V9-DA-sup (antibody)
heavy: B3 heavy with D272A
light: B3 light
notes: Tested as supernatant of antibody-producing cells; also called 12D6-24 V9 D270A; copies: 2 + 2

These binders were tested against T1, FcγRIIa-R131 (human, UniProt P12318 34-218, limits assumed) (assay: BLI (ForteBio Octet), %Rmax at 10 µM FcγRIIa-R131 (CD32a-R131 on the sheet)).
T1 construct: Construct not described
T1 sequence (looked up): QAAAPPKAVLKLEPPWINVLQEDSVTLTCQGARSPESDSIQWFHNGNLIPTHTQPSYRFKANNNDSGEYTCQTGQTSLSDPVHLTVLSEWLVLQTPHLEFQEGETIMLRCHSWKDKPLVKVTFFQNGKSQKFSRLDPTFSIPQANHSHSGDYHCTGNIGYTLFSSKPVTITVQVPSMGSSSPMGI
Procedure: (§1) See Example 8. Antibody names including “-sup” represent supernatants from antibody producing cells, whereas others are purified antibodies. Data are presented as percentages of a maximum receptor binding value for each combination of antibody and receptor, as measured in a ForteBio Octet system. See, e.g., Example 3. Each cluster of three bars represents, from left to right, binding to hCD32a/FcγRIIa-H131 (10 μM) (hatched bars), […] (10 μM) (black bars), and hCD32b/FcγRIIb (1 μM) (white bars).
(§2) Supernatants were obtained from cells expressing these antibodies and assayed for binding to hCD32/FcγRII. Selected purified antibodies without mutations at position 270 were used as controls.
B1: binds. B2: binds. B3: binds. B4: binds. B5: binds. B6: binds. B7: binds.

What follows are binders tested against T2, FcγRIIb (human, UniProt P31994 43-217, limits assumed) (assay: BLI (ForteBio Octet), %Rmax at 1 µM hCD32b/FcγRIIb).
T2 construct: Construct not described; also called hCD32b/FcγRIIb
T2 sequence (looked up): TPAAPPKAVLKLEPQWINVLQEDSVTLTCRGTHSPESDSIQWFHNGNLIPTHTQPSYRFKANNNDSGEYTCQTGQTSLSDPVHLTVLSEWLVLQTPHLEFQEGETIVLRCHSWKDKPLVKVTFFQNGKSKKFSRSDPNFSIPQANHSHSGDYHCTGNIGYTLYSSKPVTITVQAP
Procedure: as §1, §2
B1: binds. B2: binds. B3: binds. B4: binds. B5: binds. B6: binds. B7: binds.

These binders were tested against T3, FcγRIIa-H131 (human, UniProt P12318 34-218, limits assumed) (assay: BLI (ForteBio Octet), %Rmax at 10 µM hCD32a/FcγRIIa-H131).
T3 construct: Construct not described; also called hCD32a/FcγRIIa-H131
T3 sequence (looked up): T1 sequence (looked up) with R134H
Procedure: as §1, §2
B1: binds. B2: binds. B3: binds. B4: binds. B5: binds. B6: binds. B7: binds.
